Test results reported in IntAct's records for PubMed 9488481.

B1: Death-associated protein kinase 3 (Mus musculus), O54784 (parent)
chain: MSTFRQEDVEDHYEMGEELGSGQFAIVRKCQQKGTGMEYAAKFIKKRRLPSSRRGVSREEIEREVSILREIRHPNIITLHDVFENKTDVVLILELVSGGELFDFLAEKESLTEDEATQFLKQILDGVHYLHSKRIAHFDLKPENIMLLDKHAASPRIKLIDFGIAHRIEAGSEFKNIFGTPEFVAPEIVNYEPLGLEADMWSIGVITYILLSGASPFLGETKQETLTNISAVNYDFDEEYFSSTSELAKDFIRRLLVKDPKRRMTIAQSLEHSWIKVRRREDGARKPERRRLRAARLREYSLKSHSSMPRNTSYASFERFSRVLEDVAAAEQGLRELQRGRRQCRERVCALRAAAEQREARCRDGSAGLGRDLRRLRTELGRTEALRTRAQEEARAALLGAGGLKRRLCRLENRYDALAAQVAAEVQFVRDLVRALEQERLQAECGVR
partner: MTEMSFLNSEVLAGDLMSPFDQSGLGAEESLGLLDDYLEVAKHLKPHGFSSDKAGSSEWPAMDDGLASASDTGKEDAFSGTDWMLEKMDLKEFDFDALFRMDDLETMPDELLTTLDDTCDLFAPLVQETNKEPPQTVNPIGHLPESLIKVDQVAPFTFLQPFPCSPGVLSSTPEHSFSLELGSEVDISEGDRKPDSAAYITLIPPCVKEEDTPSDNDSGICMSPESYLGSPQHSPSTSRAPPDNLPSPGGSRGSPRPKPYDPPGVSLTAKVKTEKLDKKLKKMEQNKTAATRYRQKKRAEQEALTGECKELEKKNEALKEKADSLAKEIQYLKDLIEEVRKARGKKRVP

Variants of: B1
Conditions: with atf4_mouse Atf4, Q06507

Row | Variant | effect of a mutation on the interaction
1 | V422A;V429A;L436A | disrupting interaction
